Results published in US20080138818A1.

Key:
[1] = molecular target: Type I IFN receptor (human) (UniProt P17181); test: cell-based or functional assay
[2] = molecular target: T1, Type II IFN (IFN γ) receptor (human) (UniProt P15260); test: cell-based or functional assay
T1 sequence (looked up) 1: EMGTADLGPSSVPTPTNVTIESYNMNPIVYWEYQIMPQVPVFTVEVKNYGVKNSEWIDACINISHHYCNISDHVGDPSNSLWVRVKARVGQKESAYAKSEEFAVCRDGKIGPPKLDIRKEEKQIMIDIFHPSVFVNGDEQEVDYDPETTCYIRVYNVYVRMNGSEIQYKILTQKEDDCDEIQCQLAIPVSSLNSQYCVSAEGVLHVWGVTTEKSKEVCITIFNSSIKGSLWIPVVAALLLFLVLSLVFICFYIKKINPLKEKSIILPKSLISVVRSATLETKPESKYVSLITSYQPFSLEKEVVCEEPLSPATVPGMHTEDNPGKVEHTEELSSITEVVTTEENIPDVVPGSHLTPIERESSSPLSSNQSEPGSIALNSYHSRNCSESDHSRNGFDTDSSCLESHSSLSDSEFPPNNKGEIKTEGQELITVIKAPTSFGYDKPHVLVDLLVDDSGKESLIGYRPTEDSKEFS
T1 sequence (looked up) 2: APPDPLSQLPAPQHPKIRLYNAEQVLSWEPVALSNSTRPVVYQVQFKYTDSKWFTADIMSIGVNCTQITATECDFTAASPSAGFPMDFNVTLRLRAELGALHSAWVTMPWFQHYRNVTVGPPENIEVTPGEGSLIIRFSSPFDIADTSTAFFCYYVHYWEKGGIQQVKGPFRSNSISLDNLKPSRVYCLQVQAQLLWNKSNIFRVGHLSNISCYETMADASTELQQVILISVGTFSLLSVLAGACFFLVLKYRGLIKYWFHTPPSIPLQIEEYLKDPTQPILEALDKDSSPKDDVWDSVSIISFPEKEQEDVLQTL

Sequence of UniProt P17181 (P17181 28-557, chain 1 of 2): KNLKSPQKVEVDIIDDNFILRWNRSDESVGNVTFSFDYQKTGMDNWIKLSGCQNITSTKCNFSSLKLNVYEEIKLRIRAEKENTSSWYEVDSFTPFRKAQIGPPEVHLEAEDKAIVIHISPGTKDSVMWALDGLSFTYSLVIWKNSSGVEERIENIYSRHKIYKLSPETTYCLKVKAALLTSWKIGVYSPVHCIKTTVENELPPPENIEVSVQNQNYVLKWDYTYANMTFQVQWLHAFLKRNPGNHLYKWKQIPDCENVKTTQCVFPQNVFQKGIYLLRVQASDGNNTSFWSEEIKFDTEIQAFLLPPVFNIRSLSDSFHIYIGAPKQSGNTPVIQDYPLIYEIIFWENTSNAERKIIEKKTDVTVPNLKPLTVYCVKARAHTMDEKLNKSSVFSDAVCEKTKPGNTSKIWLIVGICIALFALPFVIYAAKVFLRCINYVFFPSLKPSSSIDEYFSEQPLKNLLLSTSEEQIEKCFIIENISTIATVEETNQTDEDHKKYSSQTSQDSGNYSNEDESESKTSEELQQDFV
Sequence of UniProt P17181 (P48551 27-515, chain 2 of 2, further chain): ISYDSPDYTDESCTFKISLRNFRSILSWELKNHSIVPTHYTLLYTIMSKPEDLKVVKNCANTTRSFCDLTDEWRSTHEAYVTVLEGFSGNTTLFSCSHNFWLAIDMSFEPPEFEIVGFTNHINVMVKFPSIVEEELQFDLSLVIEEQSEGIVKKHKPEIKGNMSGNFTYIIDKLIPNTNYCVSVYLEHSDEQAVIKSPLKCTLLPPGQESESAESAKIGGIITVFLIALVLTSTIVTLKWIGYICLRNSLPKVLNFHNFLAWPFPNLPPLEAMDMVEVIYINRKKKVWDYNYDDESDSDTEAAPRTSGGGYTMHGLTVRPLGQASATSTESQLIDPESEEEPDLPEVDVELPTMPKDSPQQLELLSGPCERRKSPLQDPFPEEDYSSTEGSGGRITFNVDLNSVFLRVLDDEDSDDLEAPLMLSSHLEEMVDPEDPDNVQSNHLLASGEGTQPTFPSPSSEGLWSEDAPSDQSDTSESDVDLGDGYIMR

| Substance | RLU (Relative Luciferase Units): Fold Increase, GAS-Luc reporter in U937 cells, IFNα 1.0 IU/ml [1] | RLU (Relative Luciferase Units): Fold Increase, GAS-Luc reporter in U937 cells, IFNα 100.0 IU/ml [1] | RLU (Relative Luciferase Units): Fold Increase, GAS-Luc reporter in U266R cells Clone 2 (UIG2), IFNγ 1.0 IU/ml [2] | RLU (Relative Luciferase Units): Fold Increase, GAS-Luc reporter in U266R cells Clone 2 (UIG2), IFNγ 100 0 IU/ml (so in the source) [2] | RLU (Relative Luciferase Units): Fold Increase, GAS-Luc reporter in U937 cells, IFNγ 10.0 IU/ml [2] | RLU (Relative Luciferase Units): Fold Increase, GAS-Luc reporter in U937 cells, IFNγ 100 0 IU/ml (so in the source) [2] | fold increase in RLU, IRF-Luc reporter in U937 cells Clone #2 (IRF-Luc2), IFNγ [2] |
| --- | --- | --- | --- | --- | --- | --- | --- |
| human IFNα (ligand) | 1.5 fold | 3 fold |  |  |  |  |  |
| human interferon gamma (IFNγ) (from UniProt P01579 24-166) (ligand) |  |  | 1.5 fold | 9 fold | 1.25 fold | 1.5 fold | 1.1 fold |
